Results published in publication PMC5493754, “Myosin 7 and its adaptors link cadherins to actin” (Nature Communications, 2017).
Blank lines part the entries; values can stand above or below the binder they belong to.

B4: Harmonin-a PDZ2-end (domain or fragment, human, UniProt Q9Y6N9-1 194-552, looked up)
chain: GVRGSLGSPGNRENKEKKVFISLVGSRGLGCSISSGPIQKPGIFISHVKPGSLSAEVGLEIGDQIVEVNGVDFSNLDHKEAVNVLKSSRSLTISIVAAAGRELFMTDRERLAEARQRELQRQELLMQKRLAMESNKILQEQQEMERQRRKEIAQKAAEENERYRKEMEQIVEEEEKFKKQWEEDWGSKEQLLLPKTITAEVHPVPLRKPKYDQGVEPELEPADDLDGGTEEQGEQDFRKYEEGFDPYSMFTPEQIMGKDVRLLRIKKEGSLDLALEGGVDSPIGKVVVSAVYERGAAERHGGIVKGDEIMAINGKIVTDYTLAEAEAALQKAWNQGGDWIDLVVAVCPPKEYDDELTFF
notes: Harmonin-a1 (USH1C), human, residues 194-552 of UniProt Q9Y6N9-1; also called PDZ2-end (isoA); source: E. coli BL21 (DE3) Rosetta, purified (Glutathione Sepharose 4B, size-exclusion chromatography)

Experiments:
Conditions in all cases: both partners purified
Harmonin-a PDZ2-end = molecular target: B4; assay: MST; YFP-fused partner constant at 100 nM, non-fluorescent protein titrated (16 two-fold dilutions); 20 mM Hepes pH 7.0, 100 mM NaCl, 1 mM EGTA, 0.5 mM TCEP, 0.05% Tween 20; Monolith NT.115
Myosin 7a MF2 = molecular target: T1, Myosin 7a MF2 (human, UniProt Q13402-1 1702-2215); assay: ITC; Microcal iTC200, 10 °C; 20 mM HEPES pH 7.0, 100 mM NaCl, 0.5 mM TCEP, 1 mM EGTA; single binding site model; GST removed from harmonin
T1 construct: Myosin 7a, human, C-terminal MyTH4-FERM domain (MF2), residues 1702-2215 of UniProt Q13402-1; Thrombin site of the vector replaced by an SSG linker; also called M7a MF2; Myo7a MF2; source: E. coli (BL21-AI, BL21 (DE3) Rosetta or BL21-Gold (DE3)), purified (Histrap, CaptoQ, gel filtration)
T1 sequence (looked up): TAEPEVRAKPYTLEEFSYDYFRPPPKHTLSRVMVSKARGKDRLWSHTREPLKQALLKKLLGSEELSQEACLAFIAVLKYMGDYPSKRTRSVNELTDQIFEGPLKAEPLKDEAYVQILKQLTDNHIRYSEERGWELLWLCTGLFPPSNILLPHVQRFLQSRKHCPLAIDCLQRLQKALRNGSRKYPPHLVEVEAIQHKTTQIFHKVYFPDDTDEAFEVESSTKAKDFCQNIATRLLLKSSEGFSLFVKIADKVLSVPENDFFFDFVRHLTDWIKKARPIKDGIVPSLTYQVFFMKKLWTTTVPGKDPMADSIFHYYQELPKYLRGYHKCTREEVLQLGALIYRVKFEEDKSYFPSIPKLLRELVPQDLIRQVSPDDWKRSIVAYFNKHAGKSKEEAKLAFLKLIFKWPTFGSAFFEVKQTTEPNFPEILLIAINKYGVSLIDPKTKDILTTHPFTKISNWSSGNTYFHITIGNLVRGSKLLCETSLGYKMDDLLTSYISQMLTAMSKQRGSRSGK

Myosin 7b MF2 = molecular target: T2, Myosin 7b MF2 (human, UniProt Q6PIF6 1605-2116); assay: as above
T2 construct: also called M7b MF2; Myo7b MF2; source: E. coli (BL21-AI, BL21 (DE3) Rosetta or BL21-Gold (DE3)), purified (Histrap, CaptoQ, gel filtration)
T2 sequence (looked up): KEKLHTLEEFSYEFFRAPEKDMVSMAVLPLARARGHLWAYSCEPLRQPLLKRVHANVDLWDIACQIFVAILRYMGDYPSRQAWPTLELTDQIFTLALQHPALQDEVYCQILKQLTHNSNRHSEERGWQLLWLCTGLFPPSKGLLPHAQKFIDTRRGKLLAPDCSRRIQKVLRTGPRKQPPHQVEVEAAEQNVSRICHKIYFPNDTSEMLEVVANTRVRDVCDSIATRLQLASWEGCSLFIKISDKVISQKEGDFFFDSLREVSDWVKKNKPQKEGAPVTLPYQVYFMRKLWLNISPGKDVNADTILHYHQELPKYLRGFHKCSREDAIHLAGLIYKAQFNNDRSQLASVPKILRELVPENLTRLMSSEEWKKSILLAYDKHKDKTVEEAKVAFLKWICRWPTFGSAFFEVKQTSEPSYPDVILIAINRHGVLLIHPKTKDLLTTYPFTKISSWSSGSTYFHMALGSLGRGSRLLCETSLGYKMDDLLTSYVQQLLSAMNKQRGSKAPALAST

[1] = molecular target: T3, Harmonin NPDZ1 (GST removed, as used in ITC) (human, UniProt Q9Y6N9-1 1-197); assay: as above
T3 construct: Harmonin-a1 (USH1C), human, residues 1-197 of UniProt Q9Y6N9-1; not shown: GST, N-terminal, cleaved
T3 sequence (looked up): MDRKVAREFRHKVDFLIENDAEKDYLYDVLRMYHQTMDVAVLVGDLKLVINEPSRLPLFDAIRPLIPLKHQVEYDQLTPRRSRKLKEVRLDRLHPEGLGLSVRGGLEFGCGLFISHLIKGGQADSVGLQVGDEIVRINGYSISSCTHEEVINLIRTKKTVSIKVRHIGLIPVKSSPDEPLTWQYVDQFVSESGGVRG

YFP-Myosin 7b MF2 [2] = molecular target: T4, YFP-Myosin 7b MF2 (human, UniProt Q6PIF6 1605-2116); assay: MST; YFP-fused partner constant at 100 nM, non-fluorescent protein titrated (16 two-fold dilutions); 20 mM Hepes pH 7.0, 100 mM NaCl, 1 mM EGTA, 0.5 mM TCEP, 0.05% Tween 20; Monolith NT.115
T4 construct: Myosin 7b, human, MF2, residues 1605-2116 of UniProt Q6PIF6; pET14-YFP vector; also called ^YFPM7b MF2; source: E. coli (BL21-AI, BL21 (DE3) Rosetta or BL21-Gold (DE3)), purified (Histrap, CaptoQ, gel filtration)
T4 sequence (looked up): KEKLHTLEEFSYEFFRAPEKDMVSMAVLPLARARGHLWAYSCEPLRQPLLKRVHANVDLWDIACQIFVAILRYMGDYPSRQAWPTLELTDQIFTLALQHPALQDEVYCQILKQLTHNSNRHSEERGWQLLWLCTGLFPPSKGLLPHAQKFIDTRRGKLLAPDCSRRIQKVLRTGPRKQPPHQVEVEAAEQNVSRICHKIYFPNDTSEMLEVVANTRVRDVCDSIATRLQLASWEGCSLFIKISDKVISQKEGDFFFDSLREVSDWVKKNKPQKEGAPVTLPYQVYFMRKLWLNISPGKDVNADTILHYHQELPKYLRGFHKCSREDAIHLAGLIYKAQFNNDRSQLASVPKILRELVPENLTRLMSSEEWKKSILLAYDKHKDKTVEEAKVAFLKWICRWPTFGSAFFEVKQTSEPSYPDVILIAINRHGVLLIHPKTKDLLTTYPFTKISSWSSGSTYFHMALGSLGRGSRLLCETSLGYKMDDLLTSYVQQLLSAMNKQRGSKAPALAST

YFP-Myosin 7b MF2 [3] = molecular target: T4, YFP-Myosin 7b MF2; assay: as above; remark: listed apart in the source
YFP-FL-harmonin-ΔCter = molecular target: T5, YFP-FL-harmonin-ΔCter (human, UniProt Q9Y6N9-1 1-542); assay: MST; as a1 but 150 mM NaCl (for FL-Harmonin-a); YFP-fused partner constant at 100 nM, non-fluorescent protein titrated
T5 construct: Harmonin-a1 (USH1C), human, residues 1-542 of UniProt Q9Y6N9-1; also called ^YFPFL ΔCter; source: E. coli BL21 (DE3) Rosetta, purified (Glutathione Sepharose 4B, size-exclusion chromatography)
T5 sequence (looked up): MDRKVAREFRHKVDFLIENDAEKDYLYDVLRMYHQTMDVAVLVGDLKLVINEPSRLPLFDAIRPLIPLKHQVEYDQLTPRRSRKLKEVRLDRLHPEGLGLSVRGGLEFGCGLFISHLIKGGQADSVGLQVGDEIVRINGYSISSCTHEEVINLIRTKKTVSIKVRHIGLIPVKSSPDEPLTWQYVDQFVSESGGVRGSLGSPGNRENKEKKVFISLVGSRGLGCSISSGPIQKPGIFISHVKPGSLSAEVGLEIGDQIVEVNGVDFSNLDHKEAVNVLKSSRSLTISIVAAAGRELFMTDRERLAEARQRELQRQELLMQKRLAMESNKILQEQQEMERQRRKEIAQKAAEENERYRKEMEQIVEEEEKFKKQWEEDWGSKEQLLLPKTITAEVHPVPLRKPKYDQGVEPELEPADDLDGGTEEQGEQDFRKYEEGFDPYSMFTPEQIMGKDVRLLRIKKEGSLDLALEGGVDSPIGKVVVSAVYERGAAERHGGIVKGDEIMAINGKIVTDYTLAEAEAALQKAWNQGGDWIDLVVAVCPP

YFP-Myosin 7a MF2 = molecular target: T6, YFP-Myosin 7a MF2 (human, UniProt Q13402-1 1702-2215); assay: MST; YFP-fused partner constant at 100 nM, non-fluorescent protein titrated (16 two-fold dilutions); 20 mM Hepes pH 7.0, 100 mM NaCl, 1 mM EGTA, 0.5 mM TCEP, 0.05% Tween 20; Monolith NT.115
T6 construct: Myosin 7a, human, MF2, residues 1702-2215 of UniProt Q13402-1; pET14-YFP vector; also called ^YFPM7a MF2; source: E. coli (BL21-AI, BL21 (DE3) Rosetta or BL21-Gold (DE3)), purified (Histrap, CaptoQ, gel filtration)
T6 sequence (looked up): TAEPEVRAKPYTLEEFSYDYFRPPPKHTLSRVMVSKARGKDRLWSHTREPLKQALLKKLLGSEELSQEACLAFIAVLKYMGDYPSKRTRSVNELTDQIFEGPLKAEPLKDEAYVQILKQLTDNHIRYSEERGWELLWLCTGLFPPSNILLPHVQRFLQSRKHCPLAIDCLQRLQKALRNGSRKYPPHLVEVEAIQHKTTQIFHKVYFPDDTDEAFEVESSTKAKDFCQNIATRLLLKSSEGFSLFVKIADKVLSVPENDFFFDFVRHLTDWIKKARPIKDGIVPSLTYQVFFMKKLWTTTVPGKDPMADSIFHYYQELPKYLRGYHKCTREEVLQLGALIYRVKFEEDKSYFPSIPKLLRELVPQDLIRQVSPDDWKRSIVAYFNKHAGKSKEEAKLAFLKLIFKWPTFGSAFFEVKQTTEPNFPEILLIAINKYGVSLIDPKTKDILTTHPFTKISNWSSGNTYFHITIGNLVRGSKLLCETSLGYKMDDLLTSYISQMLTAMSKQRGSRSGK

Kd (Harmonin-a PDZ2-end): 4.2 µM
B1: YFP-Harmonin NPDZ1 (domain or fragment, human, UniProt Q9Y6N9-1 1-197, looked up)
chain: MDRKVAREFRHKVDFLIENDAEKDYLYDVLRMYHQTMDVAVLVGDLKLVINEPSRLPLFDAIRPLIPLKHQVEYDQLTPRRSRKLKEVRLDRLHPEGLGLSVRGGLEFGCGLFISHLIKGGQADSVGLQVGDEIVRINGYSISSCTHEEVINLIRTKKTVSIKVRHIGLIPVKSSPDEPLTWQYVDQFVSESGGVRG
notes: Harmonin-a1 (USH1C), human, residues 1-197 of UniProt Q9Y6N9-1; also called ^YFPNPDZ1; source: E. coli BL21 (DE3) Rosetta, purified (Glutathione Sepharose 4B, size-exclusion chromatography)

Kd (YFP-Myosin 7b MF2 [2]): 68 µM | Kd (YFP-Myosin 7b MF2 [3]): > 100000 nM
B3: Harmonin-a PDZ3c F551V-F552V (domain or fragment, human, UniProt Q9Y6N9-1 428-552, looked up)
chain: QDFRKYEEGFDPYSMFTPEQIMGKDVRLLRIKKEGSLDLALEGGVDSPIGKVVVSAVYERGAAERHGGIVKGDEIMAINGKIVTDYTLAEAEAALQKAWNQGGDWIDLVVAVCPPKEYDDELTVV
notes: Harmonin-a1 (USH1C), human, residues 428-552 of UniProt Q9Y6N9-1; also called PDZ3c (isoA) F551V-F552V; source: E. coli BL21 (DE3) Rosetta, purified similarly as wild type

Second part, the binder before the results:

B2: Harmonin-a PDZ3c (GST removed, as used in ITC and crystallisation) (domain or fragment, human, UniProt Q9Y6N9-1 428-552, looked up)
chain: QDFRKYEEGFDPYSMFTPEQIMGKDVRLLRIKKEGSLDLALEGGVDSPIGKVVVSAVYERGAAERHGGIVKGDEIMAINGKIVTDYTLAEAEAALQKAWNQGGDWIDLVVAVCPPKEYDDELTFF
notes: Harmonin-a1 (USH1C), human, residues 428-552 of UniProt Q9Y6N9-1; also called PDZ3c (isoA); HarA PDZ3c; not shown: GST, N-terminal, cleaved
Kd (Myosin 7a MF2): 1000 nM | Kd (Myosin 7b MF2): 1400 ± 600 nM | Kd [1]: 10 ± 3 µM

Binder: B4
Kd (YFP-FL-harmonin-ΔCter): 2000 nM | Kd (YFP-Myosin 7a MF2): 1880 nM | Kd (YFP-Myosin 7b MF2 [3]): 2790 ± 790 nM
